The values below come from article PMC4244684 (The Journal of biological chemistry, 2007).

Where two headings read alike, the source gives them in different places.

Holding throughout (experiment): ITC
(Isothermal titration calorimetry measures the heat released or taken up as one component is titrated into another.)

Experiment [1] concerns the target T1, Su(dx) WW1 domain (Drosophila, UniProt Q9Y0H4 352-398).
T1 chain (looked up): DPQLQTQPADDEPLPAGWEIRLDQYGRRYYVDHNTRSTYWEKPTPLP

Experiment [2] addresses T2, Su(dx) WW3 domain (Drosophila, UniProt Q9Y0H4 471-514).
In experiment [3] the target is Su(dx) WW4 (F549W) mutant domain (Drosophila, UniProt Q9Y0H4 515-557, F549W).
Sequence of Su(dx) WW4 (F549W) mutant domain (Q9Y0H4 515-557 F549W): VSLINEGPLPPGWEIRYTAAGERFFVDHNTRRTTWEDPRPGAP
In experiment [4] the target is T3, Su(dx) WW2 domain (Drosophila, UniProt Q9Y0H4 392-431).
T3 sequence (Q9Y0H4 392-431): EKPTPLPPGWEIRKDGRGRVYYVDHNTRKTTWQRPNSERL
The target in experiment [5] is Su(dx) WW3-4 tandem domain pair (Drosophila, UniProt Q9Y0H4 474-554).
Sequence of Su(dx) WW3-4 tandem domain pair (Q9Y0H4 474-554): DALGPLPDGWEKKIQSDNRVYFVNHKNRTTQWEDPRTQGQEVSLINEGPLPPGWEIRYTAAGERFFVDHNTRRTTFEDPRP
Experiment [6] concerns the target T2, Su(dx) WW3 domain. This is another data set of the same source.
Experiment [7] deals with T3, Su(dx) WW2 domain. This is another data set of the same source.
Experiment [8] deals with Su(dx) WW4 domain (Drosophila, UniProt Q9Y0H4 515-557).
Sequence of Su(dx) WW4 domain (Q9Y0H4 515-557): as the sequence (Q9Y0H4 515-557 F549W) above, with W35F counted along it
The target in experiment [9] is Su(dx) WW3-4 (W505F) mutant tandem pair (Drosophila, UniProt Q9Y0H4 474-554, W505F).
Sequence of Su(dx) WW3-4 (W505F) mutant tandem pair (Q9Y0H4 474-554 W505F): as the sequence (Q9Y0H4 474-554) above, with W32F counted along it
Experiment [10] deals with Su(dx) WW3-4 preloaded (saturated) with WBP1 peptide (Drosophila | , UniProt Q9Y0H4 474-554).
Sequence of Su(dx) WW3-4 preloaded (saturated) with WBP1 peptide (Q9Y0H4 474-554): as the sequence (Q9Y0H4 474-554) above

T2 sequence (Q9Y0H4 471-514): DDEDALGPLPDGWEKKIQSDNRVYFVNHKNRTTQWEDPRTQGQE

As for GPPPPPYPG [WBP1 peptide], the Kd was 125 µM in [1]; 114 µM in experiment [2]; 31 µM in experiment [3]; 116 µM in [4]; 185 µM in experiment [5]; 115 µM in [6]. In addition, the Kd in [7] worked out at 117 µM.

For AKQPPSYEDC [Notch PY motif peptide N2], the Kd in experiment [8] turned out to be 45 µM.

Regarding AKQPPSYEDCIK [Notch PY motif peptide N1], the Kd was 97 µM in experiment [9]; 214 µM in experiment [1]; 208 µM in experiment [2]; 15 µM in experiment [3]; 45 µM in experiment [8]; 199 µM in [4]. The Kd in experiment [5] came to 95 µM; in [10] it was 42 µM.

Broadly, the Kd is the constant that tells how readily two partners part at equilibrium. A low value points to tighter binding.
